{
  "source": "paper PMC3292258",
  "about": "(Nature, 2012)",
  "binders": {"B1": {"name": "GST-BIN2 (enzyme, Arabidopsis, UniProt Q39011 1-380, looked up)", "chain": "MADDKEMPAAVVDGHDQVTGHIISTTIGGKNGEPKQTISYMAERVVGTGSFGIVFQAKCLETGETVAIKKVLQDRRYKNRELQLMRVMDHPNVVCLKHCFFSTTSKDELFLNLVMEYVPESLYRVLKHYSSANQRMPLVYVKLYMYQIFRGLAYIHNVAGVCHRDLKPQNLLVDPLTHQVKICDFGSAKQLVKGEANISYICSRFYRAPELIFGATEYTTSIDIWSAGCVLAELLLGQPLFPGENAVDQLVEIIKVLGTPTREEIRCMNPHYTDFRFPQIKAHPWHKIFHKRMPPEAIDFASRLLQYSPSLRCTALEACAHPFFDELREPNARLPNGRPFPPLFNFKQEVAGSSPELVNKLIPDHIKRQLGLSFLNQSGT"}},
  "target": "T1, MBP-YDA (Arabidopsis, UniProt Q9CAD5 1-883)",
  "T1 sequence (looked up)": "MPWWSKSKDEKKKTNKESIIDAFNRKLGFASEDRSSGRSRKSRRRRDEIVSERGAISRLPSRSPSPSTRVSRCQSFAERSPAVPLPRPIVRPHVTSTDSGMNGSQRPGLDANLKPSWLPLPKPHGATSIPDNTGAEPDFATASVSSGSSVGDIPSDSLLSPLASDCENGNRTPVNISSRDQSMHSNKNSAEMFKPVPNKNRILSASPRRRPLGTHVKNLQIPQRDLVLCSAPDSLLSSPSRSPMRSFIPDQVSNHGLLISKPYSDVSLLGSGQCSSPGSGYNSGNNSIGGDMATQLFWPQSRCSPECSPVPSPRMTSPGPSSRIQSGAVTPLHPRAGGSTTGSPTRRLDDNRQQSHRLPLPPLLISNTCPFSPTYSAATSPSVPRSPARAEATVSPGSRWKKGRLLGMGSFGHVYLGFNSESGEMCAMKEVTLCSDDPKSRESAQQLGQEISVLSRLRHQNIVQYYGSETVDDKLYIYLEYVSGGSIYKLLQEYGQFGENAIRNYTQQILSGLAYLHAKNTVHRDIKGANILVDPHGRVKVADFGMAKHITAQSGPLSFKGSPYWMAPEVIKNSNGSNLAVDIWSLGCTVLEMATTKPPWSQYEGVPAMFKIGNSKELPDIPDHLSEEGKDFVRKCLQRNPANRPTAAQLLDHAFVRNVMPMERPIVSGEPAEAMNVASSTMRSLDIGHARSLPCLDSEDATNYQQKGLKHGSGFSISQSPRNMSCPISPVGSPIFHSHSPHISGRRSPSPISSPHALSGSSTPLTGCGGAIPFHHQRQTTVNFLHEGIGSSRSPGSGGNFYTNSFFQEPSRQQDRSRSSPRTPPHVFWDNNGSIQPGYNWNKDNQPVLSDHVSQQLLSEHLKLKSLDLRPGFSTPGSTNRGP",
  "assay": "far-Western, overlay or dot blot",
  "data": [
    {"binder": "B1", "values": [
      {"measurement": "binding result", "value": "binds"}
    ]}
  ]
}
